Assay [1] has as its target T1, Importin β (Kap95p), scImpβ-His6 (yeast, UniProt Q06142 1-861).
T1 sequence (looked up): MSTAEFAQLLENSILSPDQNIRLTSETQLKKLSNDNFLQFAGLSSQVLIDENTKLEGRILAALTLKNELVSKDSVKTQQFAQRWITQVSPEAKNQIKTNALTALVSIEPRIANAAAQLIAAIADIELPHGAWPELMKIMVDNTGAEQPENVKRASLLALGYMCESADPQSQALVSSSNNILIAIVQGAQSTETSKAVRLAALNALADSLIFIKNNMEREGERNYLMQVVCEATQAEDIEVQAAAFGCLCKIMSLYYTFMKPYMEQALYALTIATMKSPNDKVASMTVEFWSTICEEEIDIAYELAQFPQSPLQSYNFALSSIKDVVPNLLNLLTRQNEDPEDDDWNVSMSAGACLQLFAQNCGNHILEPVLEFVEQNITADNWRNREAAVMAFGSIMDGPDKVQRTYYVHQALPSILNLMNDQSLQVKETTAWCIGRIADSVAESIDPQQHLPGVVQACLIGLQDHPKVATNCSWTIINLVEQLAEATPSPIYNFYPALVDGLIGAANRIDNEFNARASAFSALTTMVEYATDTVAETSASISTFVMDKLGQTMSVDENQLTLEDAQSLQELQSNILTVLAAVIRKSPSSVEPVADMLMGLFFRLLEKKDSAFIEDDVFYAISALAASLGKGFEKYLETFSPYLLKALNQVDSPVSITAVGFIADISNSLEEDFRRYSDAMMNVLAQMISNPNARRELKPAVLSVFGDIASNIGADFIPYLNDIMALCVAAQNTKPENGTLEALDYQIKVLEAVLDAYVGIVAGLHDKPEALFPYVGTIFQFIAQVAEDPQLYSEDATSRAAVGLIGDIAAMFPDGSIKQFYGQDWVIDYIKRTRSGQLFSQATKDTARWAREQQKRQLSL
The experiment in a line: SEC. In general terms: In gel filtration, larger molecules generally elute earlier.

In assay [2] the target is T1, Importin β (Kap95p), scImpβ-His6. Nature of the assay: SEC. The source holds these as a separate data set.

Where two headings read alike, the source gives them in different places.

B1: IBB-MBP-mEGFP (domain or fragment, Saccharomyces cerevisiae, UniProt Q02821 2-63, looked up)
chain: DNGTDSSTSKFVPEYRRTNFKNKGRFSADELRRRRDTQQVELRKAKRDEALAKRRNFIPPTD
For the molecule B1, the binding result in assay [1] is reported as “binds”.

B2: IBB-ZsGreen (domain or fragment, Saccharomyces cerevisiae, UniProt Q02821 2-63, looked up)
chain: B1 chain
For B2, the binding result in assay [2] is “binds”.

Source of the values: publication PMC2728434 (The EMBO Journal, 2009).
